Laboratory results taken from patent US20240018237A1 (SICHUAN KELUN BIOTECH BIOPHARMACEUTICAL, published 2024).

What was measured:
[1] = target: T1, human ROR1 (full-length, on the cell surface) (human, UniProt Q01973 30-937); test: flow cytometry, A549 cells
T1 construct: whole, on cells; the tumour cell lines carry their own ROR1; also called Ba/F3-ROR1 cells; Jeko-1
Method: (§1) The affinities of the anti-human ROR1 humanized antibodies to Ba/F3-ROR1, Jeko-1, HT-29 and A549 cells were detected by flow cytometry. The specific experimental steps were as follows: the BaBF3-ROR1, Jeko-1, HT-29 and A549 cells were incubated with the purified humanized antibodies of different concentration gradients on ice for 30 minutes, and the anti-ROR1 antibody UC961 with human IgG1 and the anti-TNP antibody were used as positive and negative controls, respectively.

[2] = target: T1, human ROR1 (full-length, on the cell …); test: flow cytometry, HT-29 cells
Method: as §1

[3] = target: T1, human ROR1 (full-length, on the cell …); test: flow cytometry, Jeko-1 cells
Method: as §1

[4] = target: T1, human ROR1 (full-length, on the cell …); test: flow cytometry, Ba/F3-ROR1 cells
Method: as §1

T1 sequence (Q01973 30-937): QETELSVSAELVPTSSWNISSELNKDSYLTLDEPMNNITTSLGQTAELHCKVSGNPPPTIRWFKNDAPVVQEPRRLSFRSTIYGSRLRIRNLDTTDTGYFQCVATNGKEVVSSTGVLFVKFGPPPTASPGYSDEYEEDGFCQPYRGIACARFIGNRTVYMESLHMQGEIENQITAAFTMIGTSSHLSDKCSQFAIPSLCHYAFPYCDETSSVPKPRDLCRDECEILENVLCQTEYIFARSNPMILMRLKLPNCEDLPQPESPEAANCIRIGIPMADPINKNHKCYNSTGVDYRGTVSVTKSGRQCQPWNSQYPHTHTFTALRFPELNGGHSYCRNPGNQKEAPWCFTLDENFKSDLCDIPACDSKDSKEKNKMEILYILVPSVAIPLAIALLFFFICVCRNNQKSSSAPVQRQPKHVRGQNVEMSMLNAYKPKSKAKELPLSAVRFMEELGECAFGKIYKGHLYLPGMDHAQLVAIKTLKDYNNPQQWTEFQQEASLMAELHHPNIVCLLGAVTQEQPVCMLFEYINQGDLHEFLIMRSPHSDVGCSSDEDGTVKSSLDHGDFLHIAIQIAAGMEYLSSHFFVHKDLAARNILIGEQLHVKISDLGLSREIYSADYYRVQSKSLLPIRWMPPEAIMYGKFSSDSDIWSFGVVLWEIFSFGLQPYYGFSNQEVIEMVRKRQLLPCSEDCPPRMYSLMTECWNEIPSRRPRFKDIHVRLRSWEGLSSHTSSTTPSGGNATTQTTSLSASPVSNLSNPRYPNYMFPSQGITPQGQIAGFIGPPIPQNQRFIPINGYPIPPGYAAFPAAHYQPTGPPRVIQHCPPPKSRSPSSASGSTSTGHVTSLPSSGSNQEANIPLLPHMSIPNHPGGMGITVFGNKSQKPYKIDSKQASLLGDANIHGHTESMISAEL

Binder | EC50 [1] | EC50 [2] | EC50 [3] | EC50 [4]
3D8-Hu46 (antibody, human IgG1, kappa, V domains shown, humanized, human IgG1 / kappa) VH: EVQLVESGGGLVQPGGSLRLSCAASGFTFSSYAMSWVRQAPGKGLEWVSSINSGGSTYYPDSVKGRFTISRDNSKNTLYLQMNSLRAEDTAVYYCARVNYYGYGDYAMDYWGQGTLVTVSS VL: DIQMTQSPSSLSASVGDRVTITCQASQDINSYLSWFQQKPGKSPKTLIYRANRLVTGVPSRFSGSGSGTDYTFTISSLQPEDIATYYCLQYDEFPYTFGGGTKLEIKR | 0.2 nM | 0.35 nM | 0.08 nM | 0.39 nM
3D8-Hu26 (antibody, human IgG1, kappa, V domains shown, humanized, human IgG1 / kappa) VH: EVQLVESGGGLVQPGGSLRLSCAASGFTFSSYAMSWVRQAPGKGLEWVASINSGGSTYYPDSVKGRFTISRDNAKNSLYLQMNSLRAEDTAVYYCARVNYYGYGDYAMDYWGQGTLVTVSS VL: DIQMTQSPSSLSASVGDRVTITCQASQDINSYLSWFQQKPGKSPKTLIYRANRLVTGVPSRFSGSGSGTDYTFTISSLQPEDIATYYCLQYDEFPYTFGGGTKLEIKR | 0.2 nM | 0.26 nM | 0.08 nM | 0.29 nM
3D8-Hu55 (antibody, human IgG1, kappa, V domains shown, humanized, human IgG1 / kappa) VH: EVQLVESGGGLVQPGGSLRLSCAASGFTFSSYAMSWVRQAPGKGLEWVSSINSGGSTYYPDSVKGRFTISRENAKNSLYLQMNSLRAGDTAVYYCARVNYYGYGDYAMDYWGQGTLVTVSS VL: DIQMTQSPSSLSASVGDRVTITCQASQDINSYLSWFQQKPGKAPKTLIYRANRLVTGVPSRFSGSGSGTDFTFTISSLQPEDIATYYCLQYDEFPYTFGGGTKLEIKR | 0.23 nM | 0.17 nM | 0.04 nM | 0.33 nM
3D8-Hu25 (antibody, human IgG1, kappa, V domains shown, humanized, human IgG1 / kappa) VH: EVQLVESGGGLVQPGGSLRLSCAASGFTFSSYAMSWVRQAPGKGLEWVASINSGGSTYYPDSVKGRFTISRDNAKNSLYLQMNSLRAEDTAVYYCARVNYYGYGDYAMDYWGQGTLVTVSS VL: DIQMTQSPSSLSASVGDRVTITCQASQDINSYLSWFQQKPGKAPKTLIYRANRLVTGVPSRFSGSGSGTDFTFTISSLQPEDIATYYCLQYDEFPYTFGGGTKLEIKR | 0.22 nM | 0.23 nM | 0.07 nM | 0.29 nM
3D8-Hu85 (antibody, human IgG1, kappa, V domains shown, humanized, human IgG1 / kappa) VH: EVQLVESGGGLVQPGGSLRLSCAASGFTFSSYAMSWVRQAPEKRLEWVSSISSGGSTYYPDSVKGRFTISRDNSKNTLYLQMNSLRAEDTAVYYCARVNYYGYGDYAMDYWGQGTLVTVSS VL: DIQMTQSPSSLSASVGDRVTITCQASQDINSYLSWFQQKPGKAPKTLIYRANRLVTGVPSRFSGSGSGTDFTFTISSLQPEDIATYYCLQYDEFPYTFGGGTKLEIKR | 0.45 nM | 0.25 nM | 0.11 nM | 0.25 nM
3D8-Hu45 (antibody, human IgG1, kappa, V domains shown, humanized, human IgG1 / kappa) VH: EVQLVESGGGLVQPGGSLRLSCAASGFTFSSYAMSWVRQAPGKGLEWVSSINSGGSTYYPDSVKGRFTISRDNSKNTLYLQMNSLRAEDTAVYYCARVNYYGYGDYAMDYWGQGTLVTVSS VL: DIQMTQSPSSLSASVGDRVTITCQASQDINSYLSWFQQKPGKAPKTLIYRANRLVTGVPSRFSGSGSGTDFTFTISSLQPEDIATYYCLQYDEFPYTFGGGTKLEIKR | 0.19 nM | 0.2 nM | 0.08 nM | 0.33 nM
3D8-Hu57 (antibody, human IgG1, kappa, V domains shown, humanized, human IgG1 / kappa) VH: EVQLVESGGGLVQPGGSLRLSCAASGFTFSSYAMSWVRQAPGKGLEWVSSINSGGSTYYPDSVKGRFTISRENAKNSLYLQMNSLRAGDTAVYYCARVNYYGYGDYAMDYWGQGTLVTVSS VL: DIQMTQSPSSLSASVGDRVTITCQASQDISNYLSWFQQKPGKSPKTLIYRANRLVTGVPSRFSGSGSGTDYTFTISSLQPEDIATYYCLQYDEFPYTFGGGTKLEIKR | 0.27 nM | 0.28 nM | 0.13 nM | 0.37 nM
3D8-Hu47 (antibody, human IgG1, kappa, V domains shown, humanized, human IgG1 / kappa) VH: EVQLVESGGGLVQPGGSLRLSCAASGFTFSSYAMSWVRQAPGKGLEWVSSINSGGSTYYPDSVKGRFTISRDNSKNTLYLQMNSLRAEDTAVYYCARVNYYGYGDYAMDYWGQGTLVTVSS VL: DIQMTQSPSSLSASVGDRVTITCQASQDISNYLSWFQQKPGKSPKTLIYRANRLVTGVPSRFSGSGSGTDYTFTISSLQPEDIATYYCLQYDEFPYTFGGGTKLEIKR | 0.31 nM | 0.29 nM | 0.08 nM | 0.28 nM
3D8-Hu56 (antibody, human IgG1, kappa, V domains shown, humanized, human IgG1 / kappa) VH: EVQLVESGGGLVQPGGSLRLSCAASGFTFSSYAMSWVRQAPGKGLEWVSSINSGGSTYYPDSVKGRFTISRENAKNSLYLQMNSLRAGDTAVYYCARVNYYGYGDYAMDYWGQGTLVTVSS VL: DIQMTQSPSSLSASVGDRVTITCQASQDINSYLSWFQQKPGKSPKTLIYRANRLVTGVPSRFSGSGSGTDYTFTISSLQPEDIATYYCLQYDEFPYTFGGGTKLEIKR | 0.3 nM | 0.29 nM | 0.09 nM | 0.33 nM
3D8-Hu27 (antibody, human IgG1, kappa, V domains shown, humanized, human IgG1 / kappa) VH: EVQLVESGGGLVQPGGSLRLSCAASGFTFSSYAMSWVRQAPGKGLEWVASINSGGSTYYPDSVKGRFTISRDNAKNSLYLQMNSLRAEDTAVYYCARVNYYGYGDYAMDYWGQGTLVTVSS VL: DIQMTQSPSSLSASVGDRVTITCQASQDISNYLSWFQQKPGKSPKTLIYRANRLVTGVPSRFSGSGSGTDYTFTISSLQPEDIATYYCLQYDEFPYTFGGGTKLEIKR | 0.91 nM | 0.27 nM | 0.04 nM | 0.2 nM

More lines, now with the values ahead:

EC50 [1] | EC50 [2] | EC50 [3] | EC50 [4] | Binder
0.18 nM | 0.16 nM | 0.03 nM | 0.28 nM | 3D8-HuC44 (antibody, human IgG1, kappa, V domains shown, humanized, human IgG1 / kappa) VH: EVQLVESGGGLVQPGGSLRLSCAASGFTFSSYAMSWVRQAPGKGLEWVSSINSGGSTYYPDSVKGRFTISRDNSKNTLYLQMNSLRAEDTAVYYCARVNYYGYGDYAMDYWGQGTLVTVSS VL: DIQMTQSPSSLSASVGDRVTITCQASQDISNYLTWFQQKPGKSPKTLIHRANRLVTGVPSRFSGSGSGTDFTFTISSLQPEDIATYYCLQYDEFPYTFGGGTKVEIKR
0.28 nM | 0.28 nM | 0.05 nM | 0.3 nM | 3D8-Hu86 (antibody, human IgG1, kappa, V domains shown, humanized, human IgG1 / kappa) VH: EVQLVESGGGLVQPGGSLRLSCAASGFTFSSYAMSWVRQAPEKRLEWVSSISSGGSTYYPDSVKGRFTISRDNSKNTLYLQMNSLRAEDTAVYYCARVNYYGYGDYAMDYWGQGTLVTVSS VL: DIQMTQSPSSLSASVGDRVTITCQASQDINSYLSWFQQKPGKSPKTLIYRANRLVTGVPSRFSGSGSGTDYTFTISSLQPEDIATYYCLQYDEFPYTFGGGTKLEIKR
0.54 nM | 0.3 nM | 0.11 nM | 0.3 nM | 3D8-Hu96 (antibody, human IgG1, kappa, V domains shown, humanized, human IgG1 / kappa) VH: EVQLVESGGGLVQPGGSLRLSCAASGFTFSSYAMSWVRQAPEKRLEWVSSISNGGSTYYPDSVKGRFTISRDNSKNTLYLQMNSLRAEDTAVYYCARVNYYGYGDYAMDYWGQGTLVTVSS VL: DIQMTQSPSSLSASVGDRVTITCQASQDINSYLSWFQQKPGKSPKTLIYRANRLVTGVPSRFSGSGSGTDYTFTISSLQPEDIATYYCLQYDEFPYTFGGGTKLEIKR
0.56 nM | 0.36 nM | 0.13 nM | 0.32 nM | 3D8-Hu95 (antibody, human IgG1, kappa, V domains shown, humanized, human IgG1 / kappa) VH: EVQLVESGGGLVQPGGSLRLSCAASGFTFSSYAMSWVRQAPEKRLEWVSSISNGGSTYYPDSVKGRFTISRDNSKNTLYLQMNSLRAEDTAVYYCARVNYYGYGDYAMDYWGQGTLVTVSS VL: DIQMTQSPSSLSASVGDRVTITCQASQDINSYLSWFQQKPGKAPKTLIYRANRLVTGVPSRFSGSGSGTDFTFTISSLQPEDIATYYCLQYDEFPYTFGGGTKLEIKR
0.58 nM | 0.52 nM | 0.43 nM | 0.3 nM | 3D8-Hu97 (antibody, human IgG1, kappa, V domains shown, humanized, human IgG1 / kappa) VH: EVQLVESGGGLVQPGGSLRLSCAASGFTFSSYAMSWVRQAPEKRLEWVSSISNGGSTYYPDSVKGRFTISRDNSKNTLYLQMNSLRAEDTAVYYCARVNYYGYGDYAMDYWGQGTLVTVSS VL: DIQMTQSPSSLSASVGDRVTITCQASQDISNYLSWFQQKPGKSPKTLIYRANRLVTGVPSRFSGSGSGTDYTFTISSLQPEDIATYYCLQYDEFPYTFGGGTKLEIKR
0.23 nM | 0.19 nM | 0.03 nM | 0.23 nM | 3D8-HuC54 (antibody, human IgG1, kappa, V domains shown, humanized, human IgG1 / kappa) VH: EVQLVESGGGLVQPGGSLRLSCAASGFTFSSYAMSWVRQAPGKGLEWVSSINSGGSTYYPDSVKGRFTISRENAKNSLYLQMNSLRAGDTAVYYCARVNYYGYGDYAMDYWGQGTLVTVSS VL: DIQMTQSPSSLSASVGDRVTITCQASQDISNYLTWFQQKPGKSPKTLIHRANRLVTGVPSRFSGSGSGTDFTFTISSLQPEDIATYYCLQYDEFPYTFGGGTKVEIKR
0.55 nM | 0.27 nM | 0.17 nM | 0.21 nM | 3D8-Hu87 (antibody, human IgG1, kappa, V domains shown, humanized, human IgG1 / kappa) VH: EVQLVESGGGLVQPGGSLRLSCAASGFTFSSYAMSWVRQAPEKRLEWVSSISSGGSTYYPDSVKGRFTISRDNSKNTLYLQMNSLRAEDTAVYYCARVNYYGYGDYAMDYWGQGTLVTVSS VL: DIQMTQSPSSLSASVGDRVTITCQASQDISNYLSWFQQKPGKSPKTLIYRANRLVTGVPSRFSGSGSGTDYTFTISSLQPEDIATYYCLQYDEFPYTFGGGTKLEIKR
